From article PMC10869706, “Chp1 is a dedicated chaperone at the ribosome that safeguards eEF1A biogenesis” (Nature Communications, 2024) come the findings set out here.

The chains are these.
B1: Chp1 (in yeast cells expressing V5-eEF1A) [yeast (S. cerevisiae)] / WT eEF1A (V5-TEF2) [yeast (S. cerevisiae)] (parent complex)
chain 1: MSTFNAETADNLEDIEKQFAVVAVEQAETYWKLLTSVPGSKLRLTKFDDEIYENFMERFPEYKDVERVKKFTEEELKTKEAKERWRKFFTIFEKKIEDYNFGTLLRTDASAEYGQFTTCFVVRLQFYAFEIARNKHGLNDWIVGQK
chain 2: MGKEKSHINVVVIGHVDSGKSTTTGHLIYKCGGIDKRTIEKFEKEAAELGKGSFKYAWVLDKLKAERERGITIDIALWKFETPKYQVTVIDAPGHRDFIKNMITGTSQADCAILIIAGGVGEFEAGISKDGQTREHALLAFTLGVRQLIVAVNKMDSVKWDESRFQEIVKETSNFIKKVGYNPKTVPFVPISGWNGDNMIEATTNAPWYKGWEKETKAGVVKGKTLLEAIDAIEQPSRPTDKPLRLPLQDVYKIGGIGTVPVGRVETGVIKPGMVVTFAPAGVTTEVKSVEMHHEQLEQGVPGDNVGFNVKNVSVKEIRRGNVCGDAKNDPPKGCASFNATVIVLNHPGQISAGYSPVLDCHTAHIACRFDELLEKNDRRSGKKLEDHPKFLKSGDAALVKFVPSKPMCVEAFSEYPPLGRFAVRDMRQTVAVGVIKSVDKTEKAAKVTKAAQKAAKK

The experiment covers variants of B1. Put plainly: co-IP (IP α-V5, blot α-Chp1), quantified; parent: 1; read off a plot.
In the case of chain 2 A125E, the ratio to parent was around 0.5.

With chain 2 G70S, the ratio to parent is around 0.25.

chain 2 D91N: the ratio to parent was around 0.45.

For the variant chain 2 R421C, the ratio to parent is around 1.2.

For chain 2 R264W, the ratio to parent was around 0.3.

On to chain 2 G382R, for which the ratio to parent was around 0.5.

As for chain 2 P331L, the ratio to parent was around 2.4.
